According to the nanobody polyreactivity screen of Harvey et al. (2022):

Assay: yeast display, Sf9 membrane polyspecificity reagent, FACS + sequencing; frameworks hold sequencing errors
In short: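 Synthetic nanobody libraries on Saccharomyces cerevisiae BJ5465 were galactose-induced for 36–48 hours, stained 1 hour at 4 °C with 10% biotinylated, detergent-solubilized Sf9 membrane reagent and enriched on streptavidin microbeads. FACS then separated cells into low and high (top ~1%) gates by anti-HA (expression) and streptavidin (reagent binding) fluorescence. Genes were colony-PCR amplified, MiSeq 2 × 250 sequenced and CDR-length filtered. A clone's polyreactivity label is that of its gate of origin.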

Sequence | polyreactivity (PSR sort gate)
QVQLVESGGGLVQAGGSLRLSCAMGWYRPAPGKERELVAGITGGGRTHYADSVKGRFTISRDNAKNTVYLQMNSLKPEDTAVYYCAAGGVRSQVPWSWYYYWGQGTQVTVSS | low polyreactivity
QVQLVESGGGLVQAGGSLRLSCAPPDLPSVVMLWDGIDRRLGKKGSSLPLLLLLVVSHADSVKGRFTISRDNAKNTVYLQMNSLKPDDTAVYYCAVAVLPWQLYSESYAEYDYWGQGTQVTVSS | low polyreactivity
QVQLVESGGGLVQAGGSLRLSCAPSGFFFYSNTMGWYRQAPGKERELVDTISKRSGNTYYADSVKGRFTISRDFAKNTVYLQMNSLKPEDTSVYYCAADFWVRHKMWYPYTSIQAYNYWGQGTQVTVSS | high polyreactivity
QVQLVESGGGLVQAGGSLRLSCAPSGFIFPLYTMGWYTQAPGKERELVAAIDFSGASTYYADSVKGRFTISRDNAKNTVYLLMNSLKPEDTAVYYCATYGSYRITVFYAYYYWGQGTQVTVSS | low polyreactivity
QVQLVESGGGLVQAGGSLRLSCAPSGFIFTRYAMGWYRQAPGKERELVAAISWSGGSTYYADSVKGRFTISRDNAKNTVYLQMNSLKPEDTAVYYCAADGSDSYDYWGQGTQVTVSS | low polyreactivity
QVQLVESGGGLVQAGGSLRLSCAPSGGTFYSYAMGWYRQAPGKESELVAAISRRGASTYYADSVKGRFTISRDNAKNNVYLQMNSLKPEDTAGYYCAAKGRSYGVTRMYYWGQGTQVTVSS | high polyreactivity
QVQLVESGGGLVQAGGSLRLSCAPSGHIFLQNAMGWYRQAPGKERELVAGITYSDTSTYADSVKGRFTISRDNAKNTVYLQMNSLKPEDTAVYYCEYYYWGQGTQVTVSS | low polyreactivity
QVQLVESGGGLVQAGGSLRLSCAPSGITFGEYAMGWYRPAPGKERELVAAISRSGGSTYADSVKGRFTISRDNAKNTVYLQMNSLKPEDTAVYYCAAYSGVGYLWFDYWGQGTQVTVSS | low polyreactivity
QVQLVESGGGLVQAGGSLRLSCAPSGITFRFYAMGWYRQAPGKEREFVAAISRSDSSYYADSVKGRFTISRDNAKNTVYLHMNSLKPEDSAVYYCAADSYRSAQGLDYWGQGSQVTVSS | high polyreactivity
QVQLVESGGGLVQAGGSLRLSCAPSGLILDGNVMGWYRQAPGTERELVAAINTSGGSTYYADSVKGRFTISRDNAKNTVYLQMNSLKPEDTAVYYCAARYPTDYDYWGQGTQVTVSS | low polyreactivity
QVQLVESGGGLVQAGGSLRLSCAPSGLTFTTYAMGWYRQAPGKERELVAAISRRGSRTYYADSVKGRFTISRDNAKNTVYLQMNSLKPEDTAVYYCNALTGSFKTYSFDYWGQGTQVTVSS | high polyreactivity
QVQLVESGGGLVQAGGSLRLSCAPSGLTFVGYAMGWYRQAPGKERELVAAISGVGTTNYADSVKGRFTISRDNAKNTVYLQMNSLKPEDTAVYYCATAPYPVPYRLYDYWGQGTQVTVSS | low polyreactivity
QVQLVESGGGLVQAGGSLRLSCAPSGNTFEHYAMGWYRQAPGKERELVAAISYSGGSTYYADSVKGRFTISRDNAKNTVYLQMNSLKPEDTAVYYCNARGRASATGRRGRPDPFGYWGQGTQVTLSS | high polyreactivity
QVQLVESGGGLVQAGGSLRLSCAPSGRIFLPYAMGWYRPAPGKEWELVAGISSGGSTKYADSVKGRFTISRDNAMNTVYLQMNSLKPEDTAVYYCNRRFPIYCSRFGYYYWGQGTQVTVSS | high polyreactivity
QVQLVESGGGLVQAGGSLRLSCAPSGRIFTPYAMGWYRQAPGKERELVAVIRDGSTYYADSVKGRFTISRDNAKNTVYLKMNSLKPEDTAVYYCRYDIWVWWSGAYDYWGQGTQVNVSS | low polyreactivity
QVQLVESGGGLVQAGGSLRLSCAPSGRIFVYYTMGWYRQAPGKERELVAAITGSGGSTYYADSVKGRFTISRDNAKYTVYLQMNSLKPVDTAVYYCAVYDSYRKFKYWGQGTQVTVSS | high polyreactivity
QVQLVESGGGLVQAGGSLRLSCAPSGRIFWFNMGCYRQAPGKERELVAAINSGGRTNYADSVKGRFTISRDNAQNTVYLQMNSLKPEDTAVYYCNARYYQVRRWYHYDYSGQGTQVTVSS | high polyreactivity
QVQLVESGGGLVQAGGSLRLSCAPSGRIFYTKAMGWYRPAPGKERELVATIRISGGNTYYADSVKGRFTISRDNAKNTVYLQMNSLKPEDTAVYYCAARARPRYYRPPYDYWGQGTQVTVSS | high polyreactivity
QVQLVESGGGLVQAGGSLRLSCAPSGRILAYYAMGWYRQAPGKEREFVAAIDSGSSTNYADSVKGRFTISRDNAKNTVYLQMNSLKPEDTAVYYCAARIRWWYYYLRSQTYYYWGQGTQVTVSS | low polyreactivity
QVQLVESGGGLVQAGGSLRLSCAPSGRTFGGYVRGRYRQAPGKERELVATITYSGGSTHYADSVKGRFTISRDNAKITVYLQMNSLKPEDTAVYYCARRRSYRYPSEYNYWGQGTQVTVSS | high polyreactivity
QVQLVESGGGLVQAGGSLRLSCAPSGRTFPYYAIGSYRQAPGKERELVARITGSGTSTYYADSVKGRFTISRDNAKNTVYLQMNSLKPEDTAVYYCAAPKYGSYYIADYEYWGQGTQVTVSS | low polyreactivity
QVQLVESGGGLVQAGGSLRLSCAPSGRTFVSNAMGWYRQAPGKERELVAGINWTDDSTYYADSVKGRFTISRDNAKNTVYLQMNSLKPEDTGVYFCGAYSWEFAWPRFDYWGQGTKVTVSS | low polyreactivity

Sequence | polyreactivity (PSR sort gate)
QVQLVESGGGLVQAGGSLRLSCAPSGRTFVWNAMGWYRQAPVKERELVAAITSGGSTNYADSVKGRFTISRDNAKNTVYLQMNSLKAEDTAVYYCAAYPDYYEDDYWGQGTQVTVSS | low polyreactivity
QVQLVESGGGLVQAGGSLRLSCAPSGRTFWAYAMGWYRQAPGKERELVAAITRSGTTTSYADSVKGRFTISRDNAKNTVYLQMNSLKPEDTAVYYCNARPIRVYINSAQHYDYWGQGTQVTVSS | high polyreactivity
QVQLVESGGGLVQAGGSLRLSCAPSGRTFYIYAMGWSRQAPGKERELVAAITRSGGSTYYADSVKGRFTISRDNAKNTVYLQMNSLKPEDTAVYYCNARRWITSDYWGQGTQVTVSS | high polyreactivity
QVQLVESGGGLVQAGGSLRLSCAPSGRTFYTYAMGWYRQAPGKERELVAAITRRGGSTFYADSVKGRFTISLDNAKNPVDLQMNSLKPEDTAVYYCAAGVVWSYSLYSIYEYDYWGQGTQVTVSS | high polyreactivity
QVQLVESGGGLVQAGGSLRLSCAPSGRTFYWYTMGWYRQAPGKERELVAAISSSDGSTYYADSVKGRFTISRDNAKNTVYLQMNSLKPEDTAVYYCAADLYYYRYWYRFNYWGQGTQVTVSS | high polyreactivity
QVQLVESGGGLVQAGGSLRLSCAPSGRTIGRNAMGWSRQAPGKERELVAAISASGSRTYYAESVKGRFTISRDNAMNTVYLQMNSLKPVDTAVYYCNAVYRTLYYRFYYWGQGTQVTVSS | high polyreactivity
QVQLVESGGGLVQAGGSLRLSCAPSGRTLRVNTMGWYRQAPGKERELVAAISSGGSRTNYADSVKGRFTISRDNAKNTVYLQMNSLKPEDTAVYYCNKYNRFVYSPPSVYWGQGTQVTVSS | high polyreactivity
QVQLVESGGGLVQAGGSLRLSCAPSGRTYLTYVMGWYRQAPGKERELVAAITRGGRTNYADSVKGRFTISRDNAKNTVYLQMNSLQPEDTAVYYCARDIHSVHNNRDKHDYDDWGQGTLVTVSS | low polyreactivity
QVQLVESGGGLVQAGGSLRLSCAPSGSIFIYYAMGWYRPAPGKERELVAAINIGGSTYYADSVKGRFTISRDNAKNSVYLQMKSLKPEDTAVYYCNAATWYRVYPYYIIYDYWGQGTQVTVSS | low polyreactivity
QVQLVESGGGLVQAGGSLRLSCAPSGSIFLQYTMGWYRQAPGKERELVAAITESDGSTYYADSVKGRFTISRDNAKNTVYLQMNSLKPEDTAVYYCAADVVYFKYWDKYDYWGQGTQVTVSS | low polyreactivity
QVQLVESGGGLVQAGGSLRLSCAPSGSIFPSYAMGWYRQAPGKERELVAAISRSAGSTYYADSVKGRFTISRDNAKNTVYLQMNSLKPEDPAVYYCAADGYSSRYRYDYWGQGTQVTVSS | low polyreactivity
QVQLVESGGGLVQAGGSLRLSCAPSGSIFRKNAMGWYRQAPGKERELVAAITGTGRTTYADSVKGRFTISRDNAKNTVYLQMNSLKPEDTAVYYCAAESVSSGDNASRYDYWGQGTQVTVSS | low polyreactivity
QVQLVESGGGLVQAGGSLRLSCAPSGSIFSWYAMGWYRQAPGKERELVAAIDDDDSTNYADSVKGRFTISRDNAKNTVYLQMNSQKPEDTAVYYCNTRSRPYWYIYRPGDYWGQGTQVTVSS | low polyreactivity
QVQLVESGGGLVQAGGSLRLSCAPSGSIFYLNAMGWYRQAPGKERELVAAISKRGSRTYYADSVKGRFTISRDNAKNTVYLQMNSLKPEDTAVYYCNALDTPGYNTEPARQYDHWGQGTQVTVSS | high polyreactivity
QVQLVESGGGLVQAGGSLRLSCAPSGSIFYRNAMGWYIQAPGKERELVAAISWSAARTYYADSVKGRFTISRDNAKNTVYLQMNSLKPEDTAVYYCATLYSYNYWGQGTQVTVSS | high polyreactivity
QVQLVESGGGLVQAGGSLRLSCAPSGSIFYSYAMVWYRQAPGKERELVASISRGGTTYYADSVKGRFTISRDNAKNTVYLQMNSLKPEDTAVYYCAAELSEWTNGFDYWGQGTQVTVSS | high polyreactivity
QVQLVESGGGLVQAGGSLRLSCAPSGSISFSNALGWYRQAPGKERELVASITSGGSTKYADSVKGRFTFSRDNAKNTVYLQMNSLQPEDTAVYYCNADSPESVYDEYDYWGQGTQVTVSS | low polyreactivity
QVQLVESGGGLVQAGGSLRLSCAPSGSSKLMLWDGIDRRLGKKGSWLPLFVLVVLRNYADSVKGRFTISRDNANNTVYLQMNSLKPEDTAVYYCAATPIGSGGWGDYWGQGTQVTVSS | low polyreactivity
QVQLVESGGGLVQAGGSLRLSCAPSGSTFTINVMGWYRQAPGKERELVAAINGGGRTNYADSVKGRFTISRDNAKNTVYLQINSLIPEDTAVYYCAADGLSNVRQMDYWGQGTQVTVSS | low polyreactivity
QVQLVESGGGLVQAGGSLRLSCAPSGSTFYPYAMGWYRQAPGKERELVAAISSGGSTYYADSVKGRFTISRDNAKNTVYLQMNSLKPEDTAVYYCAADFYYAYYWGQGTQVTVSS | low polyreactivity
QVQLVESGGGLVQAGGSLRLSCAPSGSTFYSNAMGWYRQAPGKERELVASISWSSGSTYYADSVKGRFTISRDNAKNTVYLQMNSLKPEDTAVYYCNKRPVILYDYWGQGTQVTVSS | low polyreactivity
